For the series, the system named is C.PvuII. Nature of the series: competition. Particulars: scale: % loss of shifted WT band at 10-fold excess competitor.

The values below come from publication PMC2647307.

Take Sym CAA/CAA 126-mer: the binding signal amounted to 90. As for Sym CAA/CAT 126-mer, the figure is 90. Consider Sym CAT/CAA 126-mer, for which the binding signal is 30. Take Sym CAT/CAT 126-mer: the binding signal amounted to 30.
